Target: T1, AnkB_MBD R1 charge reversal mutant ('EAAE') (human, UniProt Q01484-2 28-827, 37RAAR40 to 37EAAE40)
T1 sequence: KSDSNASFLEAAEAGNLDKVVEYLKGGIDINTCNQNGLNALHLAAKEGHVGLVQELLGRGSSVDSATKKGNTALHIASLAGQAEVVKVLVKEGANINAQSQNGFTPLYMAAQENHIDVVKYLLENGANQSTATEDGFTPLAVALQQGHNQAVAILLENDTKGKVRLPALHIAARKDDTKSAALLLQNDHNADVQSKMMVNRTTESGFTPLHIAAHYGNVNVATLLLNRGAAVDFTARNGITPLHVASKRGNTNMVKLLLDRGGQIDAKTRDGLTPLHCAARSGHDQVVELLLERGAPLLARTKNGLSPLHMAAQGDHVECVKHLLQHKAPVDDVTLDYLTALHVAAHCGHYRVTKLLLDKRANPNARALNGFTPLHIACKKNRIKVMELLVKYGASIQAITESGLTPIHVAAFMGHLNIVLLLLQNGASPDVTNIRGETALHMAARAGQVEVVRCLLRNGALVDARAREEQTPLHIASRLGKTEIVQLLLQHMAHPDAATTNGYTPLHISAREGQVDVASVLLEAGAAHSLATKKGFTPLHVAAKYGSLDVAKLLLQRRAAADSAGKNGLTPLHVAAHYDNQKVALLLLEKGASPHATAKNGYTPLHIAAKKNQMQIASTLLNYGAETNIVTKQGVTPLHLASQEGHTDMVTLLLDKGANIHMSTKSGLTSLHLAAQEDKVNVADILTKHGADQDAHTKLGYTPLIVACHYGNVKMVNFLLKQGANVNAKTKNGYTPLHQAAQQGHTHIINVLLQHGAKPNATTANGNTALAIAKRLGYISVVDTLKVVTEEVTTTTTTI
Experiment: FP

In the case of HPPIVSEEDISVG [AnkB_AI-a peptide (aa 1623–1635)], the Kd is reported as 43.8 µM.
